The text below walks through data of patent publication US20200262894A1 (FRED HUTCHINSON CANCER RESEARCH CENTER, published 2020).

Where a chain is given by its changes, count along the chain named. Non-standard residues stand in square brackets, D forms with d.

First the molecules themselves.
T1: STII peptide Ac-C(dPEG4)NWSHPQFEK-amide, maleimide-coupled to BSA carrier protein (also: maleimide-coupled to BSA carrier protein)
T1 construct: on a cytometric bead array as BSA conjugate
T1 peptide: Ac-C[dPEG4]NWSHPQFEK-NH2

T2: STII peptide H2N-CGNWSHPQFEK-amide, maleimide-coupled to BSA carrier protein (also: maleimide-coupled to BSA carrier protein)
T2 construct: on a cytometric bead array as BSA conjugate
T2 peptide: H-CGNWSHPQFEK-NH2

T3: STII peptide H2N-CGNWSHPQFEKGC-OH, maleimide-coupled to BSA carrier protein (cysteine pairing not given here; also: maleimide-coupled to BSA carrier protein)
T3 construct: on a cytometric bead array as BSA conjugate
T3 peptide: H-CGNWSHPQFEKGC-OH

B1: anti-STII monoclonal antibody 4E2 (antibody, V domains shown)
VH: QVQLQQSGAELARPGASVKLSCTASGYTFTSYGITWVRQRTGQGLEWIGEIFPGSGDTSYGEKLKGQATLTTDKSSSTAYMQLSSLTSEDSAVYFCARRYRYIYHAMDYWGQGTSVTVSS
VL: DILMTQTPLSLPVSLGDQASISCRSSQSIVHSNGNTYLEWYLQKPGQSPKLLIYKVSNRFSGVPDRFSGSGSGTDFTLKISRVEAEDLGVYYCFQGSHVPLTFGAGTKLELK
notes: also called 4E2 mAb
B2: anti-STII monoclonal antibody 3E8 (antibody, V domains shown)
VH: EVQLVETGGGFVKPGGSLKLSCAASGFTFSSYGMSWVRQTPEKRLEWVAAITSDGGGTHYPDTVKGRFTISRDFAKNTLYLQMSSLRSEDTAWYFCARHEPRLIAWFAHWGQGTLVTVSA
VL: B1 VL with I2V, N35Y, K55E, S81I, L101W, A105G, L111I
notes: also called 3E8 mAb; STII-specific mAb 3E8
B3: anti-STII monoclonal antibody 5G2 (antibody, V domains shown)
VH: B1 VH with L64F
VL: B1 VL with S81R
notes: also called 5G2 mAb; anti-STII 5G2 mAb

For one test, the target named is T1, STII peptide …. Nature of the test: flow cytometry, cytometric bead array with BSA-coupled peptides. A general note: In flow cytometry, cells or beads pass a laser one at a time.
For the molecule B1, the binding result is on record as “binds”.
On the same count and under the same terms, for B2 the value was “binds”.
The same measure, in the same setting: next, B3: “binds”.

Another test has as its target T2, STII peptide H2N-CGNWSHPQFEK-amide, …. The test is described as above.
On to B1, for which the binding result is listed as “binds”.
The same measure, in the same setting: next, B2: “binds”; B3: “binds”.

The next test concerns the target T3, STII peptide H2N-CGNWSHPQFEKGC-OH, …. The description is as above.
Consider B1, for which the binding result is “binds”.
Take B2: the binding result is recorded as “binds”.
Same read-out and setting: next, B3: “binds”.
